Test results published in publication PMC7618375 (2024).

Target: SETDB1 peptide trimethylated at K1178 (human (by the printed UniProt entry), UniProt Q15047, trimethyl-lysine at 1178)
Assay: ITC

Kd: > 80 µM
B1: MPP8 chromodomain (CD, residues 55-116) (domain or fragment)
chain: GEDVFEVEKILDMKTEGGKVLYKVRWKGYTSDDDTWEPEIHLEDCKEVLLEFRKKIAENKAK
